# Molecular target: YTHDC1 YTH domain (UniProt Q96MU7 345-509)
# Test: EMSA
binder,measurement,value
"AACUUAAUGUUUUUGCAUUGGACUUUGAGUU (ssRNA, m6A at position 22 (GGACU to GG(m6A)CU)) [MALAT1 oligo, m6A]",binding result,binds

# Reference: article doi:10.1101/2024.10.15.618347
